Here are results for 108 variants from the RNAGym collection of RNA variant scans (doi:10.7554/elife.80360).

First the molecules themselves.
B1: Twister Ribozyme (parent)
chain: AACACUGCCAAUGCCGGUCCCAAGCCCGGAUAAAAGUGGAGGGGGCGG

Variants of B1 are the subject of the data set. Put plainly: self-cleavage, relative activity (ratio to wild type); higher = more cleavage; co-transcriptional.
In the case of AACACUGCCAUUGCCGGUCCCAAGCCCGGAUAAAAGUGGAGGAGGCGG, the self-cleavage came out at 0.336. With AACACUGCCAUUGCCGGUCCCAAGCCCGGAUAAAAGUGGAGGUGGCGG, the self-cleavage was 0.606.

As to AACACUGCCAUUGCCGGUCCCAAGCCCGGAUAAAAGUGAAGGGGGCGG, the self-cleavage worked out at 0.63. For the variant AACACUGCCAUUGCCGGUACCAAGCCCGGAUAAAAGUGGAGGGGGCGG, the self-cleavage turned out to be 0.386. In the case of AACACUGCCAUUGCCGGUGCCAAGCCCGGAUAAAAGUGGAGGGGGCGG, the self-cleavage came to 0.616. The value for AACACUGCCAUUGCCGGUUCCAAGCCCGGAUAAAAGUGGAGGGGGCGG was 0.933. In the case of AACACUGCCAAAGCCGGUCCCAAGCCCGGAUAAAAGUGGGGGGGGCGG, the self-cleavage was 0.136.

For the variant AACACUGCCAAAGCCGGUCCCAAGCCCGGAUAAAAGUGGUGGGGGCGG, the self-cleavage was determined as 0.192. For AACACUGCCAAAGCCGGUCCCAUGCCCGGAUAAAAGUGGAGGGGGCGG, the self-cleavage turned out to be 0.767. The same measure for AACACUGCCAGUGCCGGUCCCAAGCCCGCAUAAAAGUGGAGGGGGCGG: 0.679; for AACACUGCCAUUGCCGGUCCCAAGCCCGAAUAAAAGUGGAGGGGGCGG: 1.02; for AACACUGCCAGUGCCGGUCCCAAGCCCGGAUAAAAGUGGAGGGGGGGG: 0.938. The value for AACACUGCCAUUGCCGGUCCCAAGCCCGGAUAAAAGUGGAGGGCGCGG was 0.969; that for AACACUGCCAUUGCCGGUCCCAAGCCCGGAUAAAAGUGGAGGGUGCGG was 1.07. On to AACACUGCCAUUACCGGUCCCAAGCCCGGAUAAAAGUGGAGGGGGCGG, for which the self-cleavage is 0.95.

In the case of AACACUGCCAUUUCCGGUCCCAAGCCCGGAUAAAAGUGGAGGGGGCGG, the self-cleavage came to 0.694. In the case of AACACUGCCAAAGCCGGUCUCAAGCCCGGAUAAAAGUGGAGGGGGCGG, the self-cleavage came out at 1.15.

For the variant AACACUGCCAAAGCCGGUCCCAAGCGCGGAUAAAAGUGGAGGGGGCGG, the self-cleavage was 0.446. AACACUGCCAAAGCCGGUCCCAAGCCCGGAUAAUAGUGGAGGGGGCGG: the self-cleavage worked out at 0.984.

For AACACUGCCAAAGCCGGUCCCAAGCCCGGAUAAGAGUGGAGGGGGCGG, the self-cleavage came out at 1.02. The same measure for AACACUGCCAAAGCCGGUCCCAAGCCCGGAUAAAAGUGGAGGGGGCGG: 1.11; for AACACUGCCAUUGCCGGUCCCAAGCCCGGAUAAAAGUGGAUGGGGCGG: 0.889. AACACUGCCAUUGCCGGUCCCAAGCCCGGAUAUAAGUGGAGGGGGCGG: the self-cleavage is 1.03. The same measure for AACACUGCCAAAGCCGGUCCCAAGCCCGGAUAAAAGUGGAGGGGGAGG: 1.09.

For AACACUGCCAAAGCCGGUCCCAAGCCCGGAUAAAAGUGGAGGGGGGGG, the self-cleavage was 1.12. The value for AACACUGCCAGUGCCGGUCCCAAGCCCGGAUAAAAGUGGAGGGGACGG was 0.811.

As for AACACUGCCAGUGCCGGUCCCAAGCCCGGAUAAAAGUGGAGGGGUCGG, the self-cleavage was determined as 0.567.

For the variant AACACUGCCAUUGCCGGUCCCAAGCGCGGAUAAAAGUGGAGGGGGCGG, the self-cleavage came to 0.31. Regarding AACACUGCCAUUGCCGGUCCCAAGCACGGAUAAAAGUGGAGGGGGCGG, the self-cleavage came out at 0.674. The value for AACACUGCCAUUGCCGGUCCCAAGCCCGGAUAAAAGUUGAGGGGGCGG was 0.875; that for AACACUGCCAUUGCCGGUCCCAAGCCCGGAUAAAAGUAGAGGGGGCGG was 1.16. As to AACACUGCCAAAUCCGGUCCCAAGCCCGGAUAAAAGUGGAGGGGGCGG, the self-cleavage was 0.577. The value for AACACUGCCAGUGCCGGGCCCAAGCCCGGAUAAAAGUGGAGGGGGCGG was 0.0264.

With AACACUGCCAUUGCUGGUCCCAAGCCCGGAUAAAAGUGGAGGGGGCGG, the self-cleavage was 1. The value for AACACUGCCAGUGCCGCUCCCAAGCCCGGAUAAAAGUGGAGGGGGCGG was 0.0792; that for AACACUGCCAGUGCCGUUCCCAAGCCCGGAUAAAAGUGGAGGGGGCGG was 0.188; that for AACACUGCCAGUGCCGAUCCCAAGCCCGGAUAAAAGUGGAGGGGGCGG was 0.372. The value for AACACUGCCAAAGUCGGUCCCAAGCCCGGAUAAAAGUGGAGGGGGCGG was 1.05; that for AACACUGCCAUUGCCGGUCCCAGGCCCGGAUAAAAGUGGAGGGGGCGG was 0.755; that for AACACUGCCAUUGCCGGUCCCAAGCCCGGAUAAAGGUGGAGGGGGCGG was 0.919. AACACUGCCAGUGCCGGUCCCAAGCCCGGAUAAAAGUGGAGGGGGCGU: the self-cleavage was found to be 0.942. Take AACACUGCCAUUGCCGGUCCCAACCCCGGAUAAAAGUGGAGGGGGCGG: the self-cleavage came out at 0.0932. Consider AACACUGCCAGAGCCGGUCCCAAGCCCGGAUAAAAGUGGAGGGGGCGG, for which the self-cleavage was determined as 0.942. Turning to AACACUGCCAGGGCCGGUCCCAAGCCCGGAUAAAAGUGGAGGGGGCGG, the self-cleavage is 0.743. Consider AACACUGCCAUUGCCGGUCCCAAGCCCGGACAAAAGUGGAGGGGGCGG, for which the self-cleavage turned out to be 1.04.

Take AACACUGCCAAAGCCGGUCCCAAGCCGGGAUAAAAGUGGAGGGGGCGG: the self-cleavage was 0.138. Turning to AACACUGCCAUUGACGGUCCCAAGCCCGGAUAAAAGUGGAGGGGGCGG, the self-cleavage stood at 0.915.

On to AACACUGCCAUUGUCGGUCCCAAGCCCGGAUAAAAGUGGAGGGGGCGG, for which the self-cleavage came out at 1.13.

Take AACACUGCCAAAGCCGGUCCAAAGCCCGGAUAAAAGUGGAGGGGGCGG: the self-cleavage is 0.152. The same measure for AACACUGCCAUUGCCGGUCCCAAGCCCGGAUAAAAGUGGAGGGGGCGG: 1.04; for AACACUGCCAUUGCCGGUCCCAAGCCCGGAUCAAAGUGGAGGGGGCGG: 0.926. The value for AACACUGCCAGUGCCGGUCCCAACCCCGGAUAAAAGUGGAGGGGGCGG was 0.0551; that for AACACUGCCAGUGCCGGUCCCAAACCCGGAUAAAAGUGGAGGGGGCGG was 0.0843.

With AACACUGCCAGUGCCGGUCCCAAGCCCGGAUAAAAAUGGAGGGGGCGG, the self-cleavage is 0.458. The same measure for AACACUGCCAGUGCCGGUCCCAAGCCCGGAUAAAACUGGAGGGGGCGG: 0.0984. The value for AACACUGCCAGUGCCGGUCCCAAGCCCGGAUAAAAGUGUAGGGGGCGG was 0.224; that for AACACUGCCAUUGCCGGUCCCAAGCCCGGAUAAAAGUGGGGGGGGCGG was 0.0881.

As for AACACUGCCAUUGCCGGACCCAAGCCCGGAUAAAAGUGGAGGGGGCGG, the self-cleavage came out at 1.

As for AACACUGCCAUUGCCGGCCCCAAGCCCGGAUAAAAGUGGAGGGGGCGG, the self-cleavage worked out at 0.617. The same measure for AACACUGCCAAAGCCGGUCCCAAGCCCGGAUAGAAGUGGAGGGGGCGG: 0.969; for AACACUGCCAAAGCCGGUCCCAAGCCCGGAUACAAGUGGAGGGGGCGG: 1.04.

With AACACUGCCAUUGCCGGUCCCUAGCCCGGAUAAAAGUGGAGGGGGCGG, the self-cleavage is 0.908. The same measure for AACACUGCCAUUGCCGGUCUCAAGCCCGGAUAAAAGUGGAGGGGGCGG: 1.08; for AACACUGCCAUUGCCGGUCGCAAGCCCGGAUAAAAGUGGAGGGGGCGG: 0.17. The value for AACACUGCCAAAGCCGGUUCCAAGCCCGGAUAAAAGUGGAGGGGGCGG was 0.882; that for AACACUGCCAAAGCCGGUGCCAAGCCCGGAUAAAAGUGGAGGGGGCGG was 0.614. The same measure for AACACUGCCAAAGCCGGUCCCAAGCCCGGAUAAACGUGGAGGGGGCGG: 1.09; for AACACUGCCAAAGCCGGUCCCAAGCCCGGAUAAAGGUGGAGGGGGCGG: 1.06; for AACACUGCCAGUGCCGGUCCCAAGCCCGGAUAAAAGUGGAGGUGGCGG: 0.374.

Regarding AACACUGCCAUUGCCGGUCCCAAGCCCGGAUAAAAGUGGAGGGGGCCG, the self-cleavage is 0.624.

For AACACUGCCAUUGCCGGUCCCAAGCCCGGAUAAAAGUGGAGGGGGCUG, the self-cleavage came out at 0.98. Consider AACACUGCCAUUGCCUGUCCCAAGCCCGGAUAAAAGUGGAGGGGGCGG, for which the self-cleavage stood at 0.544. The value for AACACUGCCAUUGCCGGUCCCAAGCCCGGAUAAAAGUGGAGGGGUCGG was 0.953; that for AACACUGCCAUUGCCGGUCCCAAGCCCGGAUAAAAGUGGAGGGGCCGG was 0.733; that for AACACUGCCAGUGCCGGUCCCAAGCCCGGAUAAAAGUGGAGGGGGCCG was 0.528. As to AACACUGCCAGUGCCGGUCCCAAGCCCGGAUAAAAGUGGAGGGGGCUG, the self-cleavage is 0.861. The same measure for AACACUGCCAUUGCCGGUCCCAAGCCCGGAUAAAAAUGGAGGGGGCGG: 0.559; for AACACUGCCAGUGCCGGUCCCAAGCCCGGAUAAAAGUGGAGCGGGCGG: 0.455.

On to AACACUGCCAGUGCCGGUCCCAAGCCCGGAUAAAAGUGGAGAGGGCGG, for which the self-cleavage worked out at 0.441.

For AACACUGCCAGUGCCGGUCCCAAGCCCGGAUAAAAGUGGAGUGGGCGG, the self-cleavage came to 0.411. Turning to AACACUGCCAGUGCCGGUCCCAAGCCCGGAUAAAAGUGGAGGGUGCGG, the self-cleavage stood at 0.876. Take AACACUGCCAGUGCCGGUCCCAAGCCCGGAUAAAAGUGGAGGGAGCGG: the self-cleavage was 0.778. Regarding AACACUGCCAAAGCCGGUCCCAAGUCCGGAUAAAAGUGGAGGGGGCGG, the self-cleavage worked out at 0.947. The same measure for AACACUGCCAAAGCCGGUCCCAAGACCGGAUAAAAGUGGAGGGGGCGG: 0.15. The value for AACACUGCCAUUGCCGGUCCCAAGCCCGGAUAAAAGUGGAGGGGGAGG was 0.93; that for AACACUGCCAUUGCCGGUCCCAAGCCCGGGUAAAAGUGGAGGGGGCGG was 1.11; that for AACACUGCCAUUGCCGGUCCCAAGCCCGGUUAAAAGUGGAGGGGGCGG was 1.01. Turning to AACACUGCCAUUGCCGGUCCCAAGCCCCGAUAAAAGUGGAGGGGGCGG, the self-cleavage stood at 0.801. The same measure for AACACUGCCAAAGCCGGUCCCAAGCCCGGUUAAAAGUGGAGGGGGCGG: 1.15. As for AACACUGCCAAAGCCGGUCCCAAGCCCGGCUAAAAGUGGAGGGGGCGG, the self-cleavage is 0.893. Consider AACACUGCCAAAGCCGGUCCCUAGCCCGGAUAAAAGUGGAGGGGGCGG, for which the self-cleavage worked out at 1.02.

On to AACACUGCCAAAGCCGGUCCCGAGCCCGGAUAAAAGUGGAGGGGGCGG, for which the self-cleavage is 0.396.

Take AACACUGCCAAAGCCGAUCCCAAGCCCGGAUAAAAGUGGAGGGGGCGG: the self-cleavage was found to be 0.85. The value for AACACUGCCAGUGCCGGUCCCAAGCCCGGAUAAAAGUGGAUGGGGCGG was 0.65; that for AACACUGCCAGUGCCGGUCCCAAGCCCGGAUAAAAGUGGAAGGGGCGG was 0.505. Consider AACACUGCCAGUGCCCGUCCCAAGCCCGGAUAAAAGUGGAGGGGGCGG, for which the self-cleavage stood at 0.406.

On to AACACUGCCAGUGCCUGUCCCAAGCCCGGAUAAAAGUGGAGGGGGCGG, for which the self-cleavage was 0.875.

With AACACUGCCAAAGCUGGUCCCAAGCCCGGAUAAAAGUGGAGGGGGCGG, the self-cleavage was 1.1. As to AACACUGCCAGUGCCGGUCCCAAGCCCGGAUAAAAGAGGAGGGGGCGG, the self-cleavage worked out at 0.587. The value for AACACUGCCAGUCCCGGUCCCAAGCCCGGAUAAAAGUGGAGGGGGCGG was 0.345.

For the variant AACACUGCCAGUACCGGUCCCAAGCCCGGAUAAAAGUGGAGGGGGCGG, the self-cleavage turned out to be 0.745.

On to AACACUGCCAUGGCCGGUCCCAAGCCCGGAUAAAAGUGGAGGGGGCGG, for which the self-cleavage turned out to be 1.05. As to AACACUGCCAUUGCCGGUCCCAAGCCCGGAUAACAGUGGAGGGGGCGG, the self-cleavage came to 0.365.

Turning to AACACUGCCAAAGCCGGUCCCAAGCCCGGAUUAAAGUGGAGGGGGCGG, the self-cleavage was found to be 1.1. Turning to AACACUGCCAUUGCCGGUCCUAAGCCCGGAUAAAAGUGGAGGGGGCGG, the self-cleavage stood at 0.0941.

For AACACUGCCAAAGCCUGUCCCAAGCCCGGAUAAAAGUGGAGGGGGCGG, the self-cleavage is 1.09. In the case of AACACUGCCAAAGCCAGUCCCAAGCCCGGAUAAAAGUGGAGGGGGCGG, the self-cleavage was determined as 1.03. The same measure for AACACUGCCAUUGCCGGUCCCAAGGCCGGAUAAAAGUGGAGGGGGCGG: 0.501.
